{
  "source": "paper PMC10209884",
  "about": "“Hypochlorite-induced oxidation promotes aggregation and reduces toxicity of amyloid beta 1-42” (Redox Biology, 2023)",
  "key": {"cortical neurons": {"system": "cortical neurons", "conditions": "in vitro, cortical neurons from rodents; cited from earlier work", "source_text": "The exact concentration of hypochlorite generated in cerebral spinal fluid is not known, but myeloperoxidase has been measured in human cerebrospinal fluid (CSF) from cognitively normal donors at 101 ± 43 pg/ml with corresponding activity of 0.0292 ± 0.001 mU [34]. Although myeloperoxidase activity is much less in CSF than in human serum, human serum also contains high levels of albumin which acts as an antioxidant. […] Considering that 3-chl ..."}, "SH-SY5Y cells": {"system": "SH-SY5Y cells", "assay": "Incucyte endocytosis assay (colocalization with Lysotracker Red)", "format": "cell-based, human", "conditions": "Aβ1-42-Hilyte-488 (50 μM) pre-treated with 160 μM NaOCl, compared to copper/H2O2 treatment, Ham's F12, 4 °C, 4 days; 1 μM on cells, 1 h; n = 27 areas from three wells", "description": "Images of the cells were taken after 1 h using an Incucyte SX5 (Sartorius).\nAβ1-42-Hilyte-488 (50 μM) was incubated with 160 μM NaOCl or […]/H2O2 in Ham's/F12 or Ham's/F12 alone for 4 days at 4 °C. SH-SY5Y cells seeded at 15,000 cells/well in a 96-well plate were then treated with 1 μM of Aβ1-42-Hilyte-488 in NB27 containing 100 nM Lysotracker Red DND-99. Images of cells (9 images per well) were taken after 1 h using an Incucyte SX5 (Sartorius). Colocalization of Aβ1-42-Hilyte-488 with Lysotracker Red was calculated using Incucyte live cell analysis software."}, "[1]": {"assay": "Western blot analysis of SDS-resistant Aβ1-42 assemblies", "format": "physicochemical", "conditions": "higher concentrations of NaOCl, PBS overnight at ambient room temperature; 10-20% tris-tricine gel, WO2 Western blot", "description": "(§1) When incubations differed from these standard conditions for a specific experiment, the details are provided in the relevant figure legend and in the relevant section of the Methods section.\nGels were stained using Instant Blue stain (Abcam; Melbourne, VIC, AUS) and imaged with Geldoc Go imager (Bio-Rad, NSW, AUS).\nBlots were imaged after exposure to enhanced chemiluminescence reagent (Bio-Rad, NSW, AUS) using a ChemiDoc MP Imaging system (Bio-Rad, NSW, AUS)."}, "[2]": {"assay": "Size exclusion chromatography of Aβ1-42 assemblies", "format": "physicochemical", "conditions": "66.67 μM Aβ1-42, PBS, 1 h ambient room temperature", "source_text": "The absorbance at 280 nm was used to monitor the elution of the peptide."}, "[3]": {"assay": "Filter trap assay (insoluble Aβ1-42 retained on cellulose acetate membrane)", "format": "physicochemical", "conditions": "co-incubation with 1.6-fold molar excess of NaOCl vs Aβ1-42 in PBS alone; Aβ1-42 55 μM, PBS pH 7.4, overnight, ambient room temperature; 0.22 μm cellulose acetate membrane, WO2 blot densitometry; mean of n = 3", "description": "as §1\nFollowing treatment with NaOCl, Aβ1-42 samples were subjected to filter trap assay in order to estimate the amount of peptide present in the insoluble fraction. […] Following extraction of the soluble fraction using a vacuum, the wells of the apparatus were washed three times using 0.01% (v/v) Triton-X in PBS. […] Blots were imaged after exposure to enhanced chemiluminescence reagent (Bio-Rad, NSW, AUS) using a ChemiDoc MP Imaging system (Bio-Rad, NSW, AUS)."}, "[4]": {"assay": "Transmission electron microscopy of ThT assay end-point samples", "format": "physicochemical", "conditions": "end-point samples of ThT assay after NaOCl pre-treatment; 2% uranyl acetate stain", "description": "Samples from the ThT kinetics assay (endpoints) were prepared for TEM on 400-mesh carbon film coated copper grids (EM resolutions Ltd.) and stained with 2% (w/v) uranyl acetate. Grids were imaged with a FEI Tecnai G2 transmission electron microscope (Cambridge Advanced Imaging Centre, University of Cambridge) and subsequent images analyzed with SIS Megaview II Image Capture system (Olympus)."}, "[5]": {"system": "SH-SY5Y neuroblastoma cells", "assay": "Incucyte Cytotox Green cell death assay", "format": "cell-based, human", "conditions": "Aβ1-42 (100 μM) pre-incubated with 80 μM NaOCl in Ham's/F12 2 h ambient room temperature; 15 μM Aβ1-42 on cells; vs Aβ1-42 without NaOCl", "description": "Cell viability was also measured in real-time using Cytotox Green reagent (Essen Bioscience) in an Incucyte SX5 (Sartorius, South VIC, AUS), according to the manufacturer's instructions."}, "[6]": {"assay": "Thioflavin T (ThT) assay of amyloid fibril formation", "format": "physicochemical", "description": "Aβ1–42 (4–5 μM) was incubated at 28 °C with shaking in PBS ± NaOCl containing ThT (20–25 μM). The ThT fluorescence of the samples was continuously monitored using a Clariostar platereader with excitation and emission wavelengths of 440 nm and 480 nm (slit widths of 10 nm), respectively. The data shown is the mean fluorescence of triplicate samples and is adjusted for the background fluorescence. In additional experiments, Aβ1–42 was pre-treated with NaOCl in PBS for 1 h at ambient room temperature before being supplemented with excess L-Met (20 mM). A control sample of Aβ1–42 was incubated in the absence of NaOCl as described previously and supplemented with L-Met. Aβ1–42 preparations were then subjected to a ThT assay incubated at 37 °C under quiescent conditions, and monitored as described above. Half-time (t1/2) values are the time to reach half of the maximum ThT fluorescence, calculated after normalising the aggregation data for 3 independent assays."}, "[7]": {"assay": "Electrospray mass spectrometry of Aβ1-42 oxidation by NaOCl", "format": "physicochemical", "conditions": "5-fold molar excess of NaOCl; 31 μM Aβ1-42, PBS, 1 h on ice/4 °C, quenched with 20 mM L-Met; electrospray MS", "description": "Aβ1–42 (31 μM) was incubated with NaOCl (0–360 μM) in PBS on ice for 1 h and the reaction was quenched using L-Met (20 mM). Electrospray mass spectrometry was performed on a Xevo G2 mass spectrometer and data was analyzed using MassLynx software (Waters UK, Elstree, Hertfordshire, UK) at the Department of Chemistry, University of Cambridge."}, "[8]": {"assay": "BisANS assay of surface exposed hydrophobicity", "format": "physicochemical", "conditions": "NaOCl at sub-stoichiometric concentration vs Aβ1-42 in PBS alone, overnight, ambient room temperature, 10 μM Aβ1-42, 20 μM bisANS, 5 min, 25 °C, Ex 360 nm, Em 502 nm, mean of n = 10", "description": "as §1\nAβ1-42 was treated with NaOCl and the solutions supplemented with excess L-Met. […] BisANS fluorescence (Excitation 360 nm, Emission 502 nm) was then measured using a Clariostar platereader (BMG Labtech). The data shown is the average BisANS fluorescence of n = 10 samples and is adjusted for background fluorescence."}},
  "data": [
    {"compound": "[Na+].[O-]Cl", "note": "[hypochlorite, sodium hypochlorite]", "values": [
      {"measurement": "hypochlorite concentration at which neurons are resistant to cell death", "setting": "cortical neurons", "result": "up to 200 μM"}
    ]},
    {"compound": "NaOCl-treated Aβ1-42: Aβ1-42 pre-incubated with sodium hypochlorite; singly oxidised species in heterogeneous assemblies", "values": [
      {"measurement": "internalisation to lysosomes (colocalization area of Aβ1-42-Hilyte-488 and Lysotracker Red)", "setting": "SH-SY5Y cells", "result": "preferentially internalise"},
      {"measurement": "size of higher order SDS-resistant Aβ1-42 assemblies", "setting": "[1]", "result": "~150", "unit": "kDa"},
      {"measurement": "SEC approximate molecular masses of predominate peaks", "setting": "[2]; 2-fold molar excess of NaOCl (133.33 μM), Superdex 75 Increase 3.2/300, A280, ≥100 kDa = exclusion limit", "result": "≥ 100", "unit": "kDa"},
      {"measurement": "reduction in insoluble Aβ1-42 detected by filter trap assay", "setting": "[3]", "result": 95, "unit": "%"}
    ]},
    {"compound": "amyloid beta peptide 1–42 [Aβ1-42]", "values": [
      {"measurement": "formation of amyloid fibrils by TEM", "setting": "[4]", "result": "markedly reduced"},
      {"measurement": "cell death after 72 h (green object count)", "setting": "[5]", "result": "approximately halved"},
      {"measurement": "amyloid-associated ThT fluorescence over a 7-hr time course", "setting": "[6]; co-incubation with 2-fold molar excess of NaOCl, 5 μM Aβ1-42, 25 μM ThT, PBS, 28 °C, orbital shaking, mean of n = 4", "result": "significantly suppress"},
      {"measurement": "increase in amyloid-associated ThT fluorescence (half-time t1/2)", "setting": "[6]; pre-treatment with 1.6-fold molar excess of NaOCl in PBS 1 h RT, quenched with excess L-Met, 4 μM Aβ1-42, 25 μM ThT, 37 °C, mean of n = 3", "result": "significantly delayed"},
      {"measurement": "amyloid-associated ThT fluorescence over the 15 h of the assay", "setting": "[6]; pre-treatment with 3.2-fold molar excess of NaOCl in PBS 1 h RT, quenched with excess L-Met, 4 μM Aβ1-42, 25 μM ThT, 37 °C, mean of n = 3", "result": "prevented"},
      {"measurement": "fraction of the peptide oxidised (singly oxidised species, 4530 Da)", "setting": "[7]", "result": "around half"},
      {"measurement": "SEC apparent size of the majority of the peptide (monomer)", "setting": "[2]; no NaOCl, Superdex 75 Increase 3.2/300, 0.05 ml/min, A280", "result": 4.5, "unit": "kDa"},
      {"measurement": "BisANS fluorescence (surface exposed hydrophobicity)", "setting": "[8]", "result": "substantial decrease"}
    ]}
  ]
}
